According to patent publication US20250257116A1:

Assays:
[1] = target: CD16-F176V-V196_S197insP-V197_T198insP (Homo sapiens (Human)) (UniProt P08637); test: cell-based or functional assay
[2] = target: CD16-WT (Homo sapiens (Human)) (UniProt P08637); test: cell-based or functional assay

Substance: metalloproteinase 17 (ADAM17) (from UniProt P78536 215-824) (enzyme)
- decrease of CD16 expression on iNK cells after adding Raji cells and Rituximab [1]: 9%
- decrease of CD16 expression on iNK cells after adding Raji cells and Rituximab [2]: 40%
